# B1: Human monoclonal autoantibody to the TSHR (M22) (antibody, V domains shown)
# VH: QVQLVQSGAEVKKPGESLKISCRGSGYRFTSYWINWVRQLPGKGLEWMGRIDPTDSYTNYSPSFKGHVTVSADKSINTAYLQWSSLKASDTGMYYCARLEPGYSSTWSVNWGQGTLVTVS
# VL: LTVLTQPPSVSGAPRQRVTISCSGNSSNIGNNAVNWYQQLPGKAPKLLIYYDDQLPSGVSDRFSGSRSGTSASLAIRGLQSEDEADYYCTSWDDSLDSQLFGGGTRLTVL
# notes: also called human TSAb; source: bought: RSR (Cardiff, UK)
# Target: T1, thyrotropin receptor (TSHR), wild type, on HEK293T cells stably expressing it (TSHR-293T) (human, UniProt P16473-1)
# T1 construct: human thyrotropin receptor, cDNA from GeneCopoeia (NM_000369.4) cloned into pLVX-Puro; also called TSHR-293T cells; source: HEK293T, lentiviral transduction (pLVX-Puro), puromycin selected, on cells
# Assay: flow cytometry on cells; competitive binding assay of M22 and the DNA aptamer YC3 on TSHR-293T cells; each in excess against the other
# Settings: one partner purified
binder,measurement,value
B1,binding result,binds
